84 variants from the RNAGym collection of RNA variant scans (doi:10.1093/molbev/msab373) can be followed below.

First the molecules themselves.
B1: Azoarcus group I ribozyme (parent)
chain: GUGCCUUGCGCCGGGAAACCACGCAAGGGAUGGUGUCAAAUUCGGCGAAACCUAAGCGCCCGCCCGGGCGUAUGGCAACGCCGAGCCAAGCUUCGGCGCCUGCGCCGAUGAAGGUGUAGAGACUAGACGGCACCCACCUAAGGCAAACGCUAUGGUGAAGGCAUAGUCCAGGGAGUGGCGAAAGUCACACAAACCGG

Variants of B1 are the subject of the data set. The experiment in a line: reverse-splicing fitness (ratio to wild type); higher = more active; in vitro selection; Mg2+ level not given. In short, it runs like this: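 An in vitro group I ribozyme library with randomized positions was T7-transcribed and gel-purified. In triplicate, 10 pmol RNA in EPPS pH 7.5 was reacted with 50 pmoles of a 30-nt RNA substrate for 1 h at 37 °C across several added MgCl2 levels (1–48 mM), then stopped with EDTA. Products were reverse transcribed from a substrate-complementary primer, PCR-amplified and sequenced (HiSeq 4000). Fitness is a variant's read proportion after selection over that before, normalised to wild type.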
As for A111C A145G C169G U176G, the reverse-splicing fitness came out at 0.00716.
With A111C A145G C169G U176C, the reverse-splicing fitness stood at 0.0392.
For A111C A145G C169G U176A, the reverse-splicing fitness turned out to be 0.0283.
With A111C A145G C150U C169A, the reverse-splicing fitness worked out at 0.0243.
The value for A111C A145G C150U C169U was 0.0877; that for A111C A145G C150U C169G was 0.0511.
Regarding A111C A145U C150U U176G, the reverse-splicing fitness came out at 0.166.
Turning to A111C A145U C150U U176C, the reverse-splicing fitness was 0.36.
Take A111C A145U C150U U176A: the reverse-splicing fitness was determined as 0.365.
As for A111C A145G U176A, the reverse-splicing fitness is 0.432.
For the variant A111C A145G U176C, the reverse-splicing fitness came out at 0.401.
As to A111C A145G U176G, the reverse-splicing fitness was determined as 0.185.
A111C A145C C150U C169G: the reverse-splicing fitness is 0.0204.
As for A111C A145C C150U C169U, the reverse-splicing fitness was 0.032.
With A111C A145C C150U C169A the figure was 0.0114; with A111C C150G C169U U176G, 0.00651; with A111C C150G C169U U176A, 0.00732.
Turning to A111C C150G C169U U176C, the reverse-splicing fitness was found to be 0.014.
With A111C C150A C169U U176G the figure was 0.00825; with A111C C150A C169U U176A, 0.0226; with A111C C150A C169U U176C, 0.0184.
For A111G A120C A145C C150G C169A U176A, the reverse-splicing fitness was found to be 0.00532.
Take A111G A120C A145C C150G C169A U176C: the reverse-splicing fitness is 0.00524.
On to A111G A120C A145C C150G C169A U176G, for which the reverse-splicing fitness came to 0.00452.
For the variant A111C C169U U176A, the reverse-splicing fitness was 0.0264.
Consider A111C C169U U176C, for which the reverse-splicing fitness was 0.0304.
The value for A111C C169U U176G was 0.00757.
The value for A111C C150U C169G U176G was 0.0072; that for A111C C150U C169G U176C was 0.0234; that for A111C C150U C169G U176A was 0.014.
For the variant A111G A120C A145G C150G U176C, the reverse-splicing fitness was determined as 0.0262.
Turning to A111G A120C A145G C150G U176A, the reverse-splicing fitness came to 0.0105.
With A111G A120C A145G C150G U176G the figure was 0.00497; with A111C A145U C150G C169U, 0.0178.
With A111C A145U C150G C169A the figure was 0.00994.
Turning to A111C A145U C150G C169G, the reverse-splicing fitness worked out at 0.0101.
As to A111G A120C A145G C150A C169G U176C, the reverse-splicing fitness was 0.0221.
On to A111G A120C A145G C150A C169G U176G, for which the reverse-splicing fitness turned out to be 0.00551.
As for A111G A120C A145G C150A C169G U176A, the reverse-splicing fitness was 0.0231.
Consider A111C A145C C150U U176G, for which the reverse-splicing fitness is 0.11.
In the case of A111C A145C C150U U176A, the reverse-splicing fitness is 0.219.
As for A111C A145C C150U U176C, the reverse-splicing fitness is 0.349.
As to A111C A145G C150A U176C, the reverse-splicing fitness is 0.168.
As for A111C A145G C150A U176A, the reverse-splicing fitness was found to be 0.146.
The value for A111C A145G C150A U176G was 0.058.
For the variant A111C C169A U176C, the reverse-splicing fitness worked out at 0.0285.
Take A111C C169A U176G: the reverse-splicing fitness worked out at 0.00548.
A111C C169A U176A: the reverse-splicing fitness was determined as 0.0188.
In the case of A111C A145G C150U C169U U176A, the reverse-splicing fitness was found to be 0.0237.
With A111C A145G C150U C169U U176G the figure was 0.00751; with A111C A145G C150U C169U U176C, 0.0254.
Regarding A111C C150A C169A U176A, the reverse-splicing fitness came out at 0.0182.
For A111C C150A C169A U176C, the reverse-splicing fitness stood at 0.0227.
Turning to A111C C150A C169A U176G, the reverse-splicing fitness worked out at 0.00777.
As for A111C A145C C150U C169G U176G, the reverse-splicing fitness was found to be 0.00689.
Take A111C A145C C150U C169G U176C: the reverse-splicing fitness was determined as 0.0197.
With A111C A145C C150U C169G U176A the figure was 0.0249; with A111C C150U C169A, 0.0198; with A111C C150U C169G, 0.0354.
A111C C150U C169U: the reverse-splicing fitness is 0.0632.
Regarding A111C C150A, the reverse-splicing fitness worked out at 0.303.
The value for A111C C150U was 0.709.
Consider A111C C150G, for which the reverse-splicing fitness was determined as 0.185.
On to A111C A145U C150G U176C, for which the reverse-splicing fitness came to 0.119.
With A111C A145U C150G U176G the figure was 0.022; with A111C A145U C150G U176A, 0.0925; with A111C A145G C169A, 0.0355.
With A111C A145G C169U the figure was 0.126; with A111C A145G C169G, 0.0737.
On to A111G A120C A145C, for which the reverse-splicing fitness came to 0.653.
For A111G A120C A145G, the reverse-splicing fitness was found to be 0.688.
As to A111G, the reverse-splicing fitness stood at 1.01.
With A111G A120C A145C C169U U176G the figure was 0.00718.
A111G A120C A145C C169U U176A: the reverse-splicing fitness was 0.0611.
A111G A120C A145C C169U U176C: the reverse-splicing fitness turned out to be 0.061.
For A111C A145U C150G C169A U176C, the reverse-splicing fitness turned out to be 0.011.
For the variant A111C A145U C150G C169A U176A, the reverse-splicing fitness was 0.00872.
As for A111C A145U C150G C169A U176G, the reverse-splicing fitness was determined as 0.007.
With A111C C150G C169G U176G the figure was 0.00532; with A111C C150G C169G U176C, 0.00414.
With A111C C150G C169G U176A the figure was 0.00634.
A111C A145C C150G C169U U176C: the reverse-splicing fitness amounted to 0.0119.
With A111C A145C C150G C169U U176G the figure was 0.00607; with A111G A120C A145C C150U C169G, 0.00938.
